Source: publication PMC10866687 (2024)

B1: cortactin-GFP (wild type), in 293T cells [not stated] / FLAG-MAP1B-LC1 (wild type) [not stated (human or rat cDNA cloned)] (parent complex)
chain 1: not shown
chain 2: DRSPSPRHPDVSMVDPEALAIEQNLGKALKKDLKEKTKTKKPGTKTKSSSPVKKSDGKSKPLAASPKPAGLKESSDKVSRVASPKKKESVEKAAKPTTTPEVKAARGEEKDKETKNAANASASKSAKTATAGPGTTKTTKSSAVPPGLPVYLDLCYIPNHSNSKNVDVEFFKRVRSSYYVVSGNDPAAEEPSRAVLDALLEGKAQWGSNMQVTLIPTHDSEVMREWYQETHEKQQDLNIMVLASSSTVVMQDESFPACKIEL

Variants of: B1
Experiment: coimmunoprecipitation (IP FLAG, immunoblot quantification); n = 4 experiments; parent: 100; read off a plot

| Variant | percent of parent |
| --- | --- |
| chain 2 P66A, chain 2 K67A, chain 2 P68A | ~93 % of WT |
| chain 2 P145A, chain 2 P146A | ~36 % of WT |
| chain 2 K41A, chain 2 P42A | ~76 % of WT |
| chain 2 P6A, chain 2 R7A | ~78 % of WT |
| chain 2 K60A, chain 2 P61A | ~120 % of WT |
| chain 2 K95A, chain 2 P96A | ~110 % of WT |
